These results are taken from patent publication US20150125424A1 (MICREOS B V, published 2015).

The target of test [1] is outer membrane protein C (OmpC) of S. Typhimurium DT7155 (S. Typhimurium DT7155). Briefly: control of competition in pull down assay; S. Tm. DT7155 wt cells pre-incubated with HGFP, then phage S16 added; value is remaining S16 adsorption.
For test [2], the target named is T1, Phage S16 (whole phage particle) (Phage S16, UniProt M1EAS5 1-638; M1EBB2 1-249).
T1 construct: The whole virion stood in the assay; All other virion proteins are left out; also called bacteriophage S16; CBS130493
T1 sequence 1: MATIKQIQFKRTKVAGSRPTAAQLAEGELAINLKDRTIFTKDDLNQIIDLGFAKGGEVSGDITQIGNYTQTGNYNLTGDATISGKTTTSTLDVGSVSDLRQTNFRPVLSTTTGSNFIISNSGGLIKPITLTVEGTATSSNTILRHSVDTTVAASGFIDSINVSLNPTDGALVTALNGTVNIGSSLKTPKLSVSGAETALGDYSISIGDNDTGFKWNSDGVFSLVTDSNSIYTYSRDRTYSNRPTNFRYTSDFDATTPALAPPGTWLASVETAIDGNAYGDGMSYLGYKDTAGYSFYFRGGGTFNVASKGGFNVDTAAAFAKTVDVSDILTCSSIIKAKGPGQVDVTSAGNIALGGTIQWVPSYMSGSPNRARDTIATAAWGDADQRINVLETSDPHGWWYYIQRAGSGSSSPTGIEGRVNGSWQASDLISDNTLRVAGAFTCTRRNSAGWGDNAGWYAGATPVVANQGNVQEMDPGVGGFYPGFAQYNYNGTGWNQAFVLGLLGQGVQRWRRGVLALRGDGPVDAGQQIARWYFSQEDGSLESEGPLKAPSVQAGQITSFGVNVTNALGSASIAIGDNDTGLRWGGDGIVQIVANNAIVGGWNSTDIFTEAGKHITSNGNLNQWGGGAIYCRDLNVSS
T1 sequence 2: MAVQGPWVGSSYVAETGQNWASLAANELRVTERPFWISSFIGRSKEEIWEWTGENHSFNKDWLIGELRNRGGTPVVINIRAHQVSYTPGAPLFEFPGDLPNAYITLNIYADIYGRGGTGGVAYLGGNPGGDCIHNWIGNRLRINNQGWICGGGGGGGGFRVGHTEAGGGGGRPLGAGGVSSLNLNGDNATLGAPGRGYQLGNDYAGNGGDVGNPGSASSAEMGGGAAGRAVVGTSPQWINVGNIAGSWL
The test can be described thus: pull down assay (phage adsorption) on E. coli K-12 wt and E. coli K-12 ΔompC::ompC(K-12) cells.

Turning to HGFP (6xHis-tagged GFP alone, control), in test [1], the adsorption ratio of S16 after pre-incubation was 93.8%.

B1: OmpC of E. coli K-12 (receptor)
chain: AEVYNKDGNKLDLYGKVDGLHYFSDNKDVDGDQTYMRLGFKGETQVTDQLTGYGQWEYQIQGNSAENENNSWTRVAFAGLKFQDVGSFDYGRNYGVVYDVTSWTDVLPEFGGDTYGSDNFMQQRGNGFATYRNTDFFGLVDGLNFAVQYQGKNGNPSGEGFTSGVTNNGRDALRQNGDGVGGSITYDYEGFGIGGAISSSKRTDAQNTAAYIGNGDRAETYTGGLKYDANNIYLAAQYTQTYNATRVGSLGWANKAQNFEAVAQYQFDFGLRPSLAYLQSKGKNLGRGYDDEDILKYVDVGATYYFNKNMSTYVDYKINLLDDNQFTRDAGINTDNIVALGLVYQF
notes: whole, on cells; Presented on E. coli K-12 wt cells, or expressed in trans from pBAD18 Amp^r in E. coli K-12 ΔompC; also called ompC(K-12)
As to B1, in test [2], the binding result is “no binding”.
